Measurements: the supplement of paper PMC9170038

Test system: MS2 coat protein
Assay: apparent KD of MS2 coat protein; designed switch direction (-1 OFF switch, 1 ON switch): -1; higher = weaker reporter binding
Summary of the method: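 For each design, the apparent KD is the median over clusters of curves fitted to normalised cluster fluorescence. Clusters held RNA switches with common flanks, transcribed on Illumina chips by stalled E. coli RNA polymerase. These were titrated with SNAP-549-labelled MS2 coat protein, doubling from 0.7 or 1.5 nM to 3 µM, without input, with 200 uM small-molecule ligand, or with an oligonucleotide input.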

[1] = Eterna round: R95, input ligand: FMN 200 uM
[2] = Eterna round: R95, input ligand: microRNA oligo, concentration not stated
[3] = Eterna round: R95, input ligand: none
[4] = input ligand: microRNA oligo, concentration not stated

Row | Sequence | apparent KD of MS2 coat protein [1] [nM] | apparent KD of MS2 coat protein [2] [nM] | apparent KD of MS2 coat protein [3] [nM] | also measured
1 | AUGAGCAGACGGAGAUCCAACAUGAGGAUCACCCAUGUCUCAAAAGCUUUUUGCUCAUCUUAUUGUACCUUGGUGCA [Mat - Sensor v3 - turn-off var 1 - JL Mod - D17] (puzzle: Sensor v3, turn-off variant 1) | 172 | 16.5 | 213 | –
2 | UGCAUGGUAGGAUAUACGGAACAUUAGGGUUUGUUAUGUAGACAUGAGGAUCACCCAUGUAGAAGGGCCGUGCU [JL-ex2-2.14 mat747 mod] (puzzle: Exclusion 2) | – | 33.8 | – | –
3 | CAUGCUUCGGCAUGUACAAGCUUUUUGCUCGUCUUAUUAACAUGAGGAUCACCCAUGUUAAUGAGACCUCAUGUAUU [Sensor v3 - turn-off variant 2 - 8] (puzzle: Sensor v3, turn-off variant 2) | 13.6 | 16.7 | 11.4 | –
4 | CAUGCUUCGGCAUGUACAAGCUUUUUGCUCGUCUUAUUAACAUGAGGAUCACCCAUGUCAAAGAGACCUCAUGUAUU [Sensor v3 - turn-off variant 2 - 3] (puzzle: Sensor v3, turn-off variant 2) | 356 | 16 | 263 | –
5 | UCGCUCCGUGUAGGAUAUCGCCGUUCUAUUCGGCGAGAAGGACAUGAGGAUCACCCAUGUAUGUUAUUAUCACGCGUGGCGCAA [Design 58] (Eterna round: R96, puzzle: Exclusion NG 1) | – | – | – | apparent KD of MS2 coat protein [4]: 12.5 nM
6 | GCAGAGGUAGUGAGGAUAUGCUCUACCUCGGUAGAGCAGAAGGCACAUGAGGAUCACCCAUGUGAUUCUUCUGC [Omei Ex4B B9] (Eterna round: R97, puzzle: Brourd's mod of Exclusion 4) | – | – | – | apparent KD of MS2 coat protein (input ligand: FMN 200 uM): 15 nM; apparent KD of MS2 coat protein (input ligand: none): 13.2 nM
7 | UUUGUUUUGGUAGGAUAUACUUUUAUUUUCUCUUUCCUUACAUGAGGAUCACCCAUGUUUACAUUGUAGAAGGACCACUUUGUU [JR_ExcNG2_Sub051] (Eterna round: R96, puzzle: Exclusion NG 2) | – | – | – | apparent KD of MS2 coat protein [4]: 15.5 nM
8 | CUCAUGUGUGAGGAUAUUAGAGCGAGCGUGUGAUAAGAAGGCACAACAUGAGGAUCACCCAUGUAGAGAGAGUG [Alacar 1st] (Eterna round: R97, puzzle: Exclusion 6) | – | – | – | apparent KD of MS2 coat protein (input ligand: FMN 200 uM): 28.9 nM; apparent KD of MS2 coat protein (input ligand: none): 69.6 nM
9 | GUAUAACUACACGGGCUCAACAUGAGGAUCACCCAUGUCACAUACGCAAGCUUUUUGCUUGUCUUAUCUGUCCGUGA [Quleorraa] (puzzle: Sensor v3, turn-off variant 1) | 12.3 | 11.9 | 10.7 | –
10 | UUUAAUUUUUUUUUUUUACAAGCUUUUUGCUCGUCUUAUACAUGAGGAUCACCCAUGUGAGUGGAAGAUAAAUUAUC [JMF 11] (puzzle: Sensor v3, turn-off variant 2) | 15.1 | 15 | 17.9 | –
11 | CUUAAGGCAGGAUAUGCUUUUUGUGACAUGAGGAUCACCCAUGUGAUGCAGUUUGGGUGUGCAGAAGGGCCUGAGU [JR_E5_Sub033] (puzzle: Exclusion 5) | – | 378 | – | –
12 | AAAUUAGCAAGUAGAUCCGACAUGAGGAUCACCCAUGUAAUCUAAAAUUACGCUGCACGAAAGUGCGCUCGUCUUAG [Sensor-V1 #13] (Eterna round: R97, puzzle: Sensor, turn-off variant 1) | – | – | – | apparent KD of MS2 coat protein (input ligand: FMN 200 uM): 362 nM; apparent KD of MS2 coat protein (input ligand: none): 405 nM
13 | UCGGCGCGAGGAUAUGCGGCUUGUGCUUCGGGCCCUCGCGUACAUGAGGAUCACCCAUGUAGAAGGCGCGCCGC [Apr-15 SS2-44] (puzzle: Exclusion 2) | – | 53.8 | – | –
14 | CUUUUGUGAGGAUAUCAGUAGUAAAUAAAUAAUAUUACUACUGAGAAGGCACAUGAGGAUCACCCAUGUUCCUC [salish99_ex3_r3_083] (puzzle: Exclusion 4) | – | 42.3 | – | –
15 | GGGAUGUCAGGAUAUCCAAAAGUCCGCCAGUACGGCAGACAGGAGAAGGGACAUGAGGAUCACCCAUGUAAAGA [Leinrete] (puzzle: Exclusion 4) | 89 | 32.6 | 38.3 | –
